Data on four molecules can be found in publication PMC3590988 (The EMBO Journal, 2013).

Substitutions are numbered along the chain they refer to. Numbers in names are those of the source.

Assay in all cases: BLI
For orientation: BLI is a label-free optical method that tracks binding on a fibre tip over time.

Test [1] addresses T1, ScWpl1^259–647 (Wapl domain of Saccharomyces cerevisiae Wpl1), wild type (S. cerevisiae, UniProt Q99359 259-647).
T1 sequence (looked up): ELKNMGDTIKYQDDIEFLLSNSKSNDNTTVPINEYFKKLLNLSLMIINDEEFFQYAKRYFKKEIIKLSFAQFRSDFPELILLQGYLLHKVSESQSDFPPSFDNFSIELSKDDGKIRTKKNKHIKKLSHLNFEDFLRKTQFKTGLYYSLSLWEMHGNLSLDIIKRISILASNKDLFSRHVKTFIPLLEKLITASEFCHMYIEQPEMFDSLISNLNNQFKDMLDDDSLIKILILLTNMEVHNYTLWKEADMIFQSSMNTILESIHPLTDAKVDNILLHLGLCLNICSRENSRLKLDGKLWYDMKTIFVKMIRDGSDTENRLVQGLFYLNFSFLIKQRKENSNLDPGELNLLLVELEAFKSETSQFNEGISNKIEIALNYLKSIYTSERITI

The target in test [2] is T2, ScWpl1^259–647 N493A N622A L532E (S. cerevisiae, UniProt Q99359 259-647, N493A | N622A | L532E).
T2 sequence (looked up): T1 sequence (looked up) with N235A, L274E, N364A

Test [3] has as its target T3, ScWpl1^259–647 N493A N622A L577R (S. cerevisiae, UniProt Q99359 259-647, N493A | N622A | L577R).
T3 sequence (looked up): T1 sequence (looked up) with N235A, L319R, N364A

In test [4] the target is T4, ScWpl1^259–647 N493E N622E (S. cerevisiae, UniProt Q99359 259-647, N493E | N622E).
T4 sequence (looked up): T1 sequence (looked up) with N235E, N364E

For test [5], the target named is T5, ScWpl1^259–647 D271A D272A (S. cerevisiae, UniProt Q99359 259-647, D271A | D272A).
T5 sequence (looked up): T1 sequence (looked up) with D13A, D14A

Test [6] has as its target T6, ScWpl1^259–647 K376Q K377Q K382Q K383Q (S. cerevisiae, UniProt Q99359 259-647, K376Q | K377Q | K382Q | K383Q).
T6 sequence (looked up): T1 sequence (looked up) with K118Q, K119Q, K124Q, K125Q

B1: GST-tagged ScSmc3 ATPase head (ScSmc3^AH), wild type (domain or fragment, S. cerevisiae)
chain: MYIKRVIIKGFKTYRNETIIDNFSPHQNVIIGSNGSGKSNFFAAIRFVLSDDYSNLKREERQGLIHQGSGGSVMSASVEIVFHDPDHSMILPSGVLSRGDDEVTIRRTVGLKKDDYQLNDRNVTKGDIVRMLETAGFSMNNPYNIVPQGKIVALTNAKDKERLQLLEDVVGAKSFEVKLKASLKKMEETESGGSGGKVSENFEAVFERLVPRGTAKLIIHRKNDNANDHDESIDVDMDAESNESQNGKDSEIMYTGVSISVSFNSKQNEQLHVEQLSGGQKTVCAIALILAIQMVDPASFYLFDEIDAALDKQYRTAVATLLKELSKNAQFICTTFRTDMLQVADKFFRVKYENKISTVIEVNREEAIGFIRGSNKFAEV
By Kd is commonly meant the free concentration of one partner at which half of the binding sites on the other are occupied at equilibrium, for simple one-to-one binding. The low end stands for tighter binding, the high end for weaker binding. A word on the koff: it is the first-order rate constant of dissociation. Read a low koff as slow dissociation. Usually kon stands for the rate constant with which the complex forms. Low values mean slower complex formation, high ones faster complex formation. For B1, the Kd in test [1] was found to be 47 nM; in test [2], 82 nM; in test [3] it was 77 nM; in test [4] it was 126 nM; in test [5], 167 nM; in test [6], 200 nM. Also, the koff in test [1] is 0.000248 s⁻¹; in test [2], 0.000344 s⁻¹; in test [3], 0.000428 s⁻¹; in test [4], 0.000492 s⁻¹; in test [5], 0.000395 s⁻¹; in test [6], 0.00056 s⁻¹. Further, the kon in test [1] is 5220 M⁻¹ s⁻¹; in test [2], 4200 M⁻¹ s⁻¹; in test [3], 5540 M⁻¹ s⁻¹; in test [4] it was 3920 M⁻¹ s⁻¹; in test [5] it was 2370 M⁻¹ s⁻¹; in test [6], 2800 M⁻¹ s⁻¹.

B2: GST-tagged ScSmc3^AH L163D L166D (domain or fragment, S. cerevisiae)
chain: B1 chain with L163D, L166D
With B2, in test [1], the Kd is 102 nM, the off-rate constant (koff) is 0.000597 s⁻¹ and the kon came out at 5880 M⁻¹ s⁻¹.

B3: GST-tagged ScSmc3^AH K112N K113N (domain or fragment, S. cerevisiae)
chain: B1 chain with K112N, K113N
On to B3, for which, in test [1], the Kd was found to be 88 nM, the koff was 0.000431 s⁻¹ and the kon turned out to be 4880 M⁻¹ s⁻¹.

B4: GST-tagged ScSmc3^AH L163A L166A D168A (domain or fragment, S. cerevisiae)
chain: B1 chain with L163A, L166A, D168A
In test [1], B4 registered a Kd of 104 nM, a koff of 0.000497 s⁻¹ and a kon of 4770 M⁻¹ s⁻¹.
